Results from patent US20220332804A1 (CSL INNOVATION, published 2022).

What was measured:
Test in all cases: SPR, antibody captured, C2 as analyte;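 further: biacore SPR at 37 °C, anti-C2 mAbs captured via goat anti-human IgG on CM5 chips, double-referenced sensorgrams fit to a 1:1 kinetic or steady-state model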
human C2 D511A = biological target: T1, human C2 D511A (human, UniProt P06681 21-752)
T1 sequence: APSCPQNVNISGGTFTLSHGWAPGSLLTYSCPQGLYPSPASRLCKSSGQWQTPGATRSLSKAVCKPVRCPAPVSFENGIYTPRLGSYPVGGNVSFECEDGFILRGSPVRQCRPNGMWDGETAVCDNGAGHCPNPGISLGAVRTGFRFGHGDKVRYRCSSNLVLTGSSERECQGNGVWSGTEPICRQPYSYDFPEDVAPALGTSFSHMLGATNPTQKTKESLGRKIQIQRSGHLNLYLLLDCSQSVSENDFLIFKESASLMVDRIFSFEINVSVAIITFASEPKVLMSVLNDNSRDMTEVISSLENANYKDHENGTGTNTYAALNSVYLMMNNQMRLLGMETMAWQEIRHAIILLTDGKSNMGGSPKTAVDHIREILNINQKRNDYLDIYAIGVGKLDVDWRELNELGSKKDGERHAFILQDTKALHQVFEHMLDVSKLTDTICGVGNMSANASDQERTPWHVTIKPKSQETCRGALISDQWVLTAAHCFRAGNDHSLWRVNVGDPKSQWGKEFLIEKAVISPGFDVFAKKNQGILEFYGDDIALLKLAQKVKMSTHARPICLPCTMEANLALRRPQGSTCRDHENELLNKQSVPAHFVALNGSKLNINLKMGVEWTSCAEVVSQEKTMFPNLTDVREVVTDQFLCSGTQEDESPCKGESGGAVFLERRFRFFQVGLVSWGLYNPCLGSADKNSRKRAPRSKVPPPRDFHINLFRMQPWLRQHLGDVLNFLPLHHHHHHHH

human C2 P650A = biological target: T2, human C2 P650A (human, UniProt P06681 21-752)
T2 sequence: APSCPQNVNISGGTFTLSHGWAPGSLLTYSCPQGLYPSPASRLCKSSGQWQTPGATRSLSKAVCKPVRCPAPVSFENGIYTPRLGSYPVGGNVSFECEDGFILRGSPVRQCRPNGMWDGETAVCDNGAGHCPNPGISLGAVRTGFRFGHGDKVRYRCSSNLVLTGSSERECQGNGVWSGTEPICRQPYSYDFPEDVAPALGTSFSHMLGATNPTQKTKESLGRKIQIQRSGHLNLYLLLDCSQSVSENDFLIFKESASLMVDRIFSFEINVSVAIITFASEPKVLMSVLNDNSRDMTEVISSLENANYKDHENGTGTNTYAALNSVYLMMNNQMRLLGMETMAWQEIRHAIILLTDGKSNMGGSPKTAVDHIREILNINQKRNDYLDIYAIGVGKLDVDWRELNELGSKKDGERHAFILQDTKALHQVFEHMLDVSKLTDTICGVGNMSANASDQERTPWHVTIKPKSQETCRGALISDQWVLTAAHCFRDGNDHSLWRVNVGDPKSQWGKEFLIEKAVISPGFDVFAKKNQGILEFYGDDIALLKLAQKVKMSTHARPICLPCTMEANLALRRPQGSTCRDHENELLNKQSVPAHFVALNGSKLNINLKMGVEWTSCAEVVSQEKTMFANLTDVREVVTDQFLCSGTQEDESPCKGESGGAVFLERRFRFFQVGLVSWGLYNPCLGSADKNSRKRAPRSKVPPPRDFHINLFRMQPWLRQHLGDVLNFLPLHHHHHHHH

human C2 H435A = biological target: T3, human C2 H435A (human, UniProt P06681 21-752)
T3 sequence: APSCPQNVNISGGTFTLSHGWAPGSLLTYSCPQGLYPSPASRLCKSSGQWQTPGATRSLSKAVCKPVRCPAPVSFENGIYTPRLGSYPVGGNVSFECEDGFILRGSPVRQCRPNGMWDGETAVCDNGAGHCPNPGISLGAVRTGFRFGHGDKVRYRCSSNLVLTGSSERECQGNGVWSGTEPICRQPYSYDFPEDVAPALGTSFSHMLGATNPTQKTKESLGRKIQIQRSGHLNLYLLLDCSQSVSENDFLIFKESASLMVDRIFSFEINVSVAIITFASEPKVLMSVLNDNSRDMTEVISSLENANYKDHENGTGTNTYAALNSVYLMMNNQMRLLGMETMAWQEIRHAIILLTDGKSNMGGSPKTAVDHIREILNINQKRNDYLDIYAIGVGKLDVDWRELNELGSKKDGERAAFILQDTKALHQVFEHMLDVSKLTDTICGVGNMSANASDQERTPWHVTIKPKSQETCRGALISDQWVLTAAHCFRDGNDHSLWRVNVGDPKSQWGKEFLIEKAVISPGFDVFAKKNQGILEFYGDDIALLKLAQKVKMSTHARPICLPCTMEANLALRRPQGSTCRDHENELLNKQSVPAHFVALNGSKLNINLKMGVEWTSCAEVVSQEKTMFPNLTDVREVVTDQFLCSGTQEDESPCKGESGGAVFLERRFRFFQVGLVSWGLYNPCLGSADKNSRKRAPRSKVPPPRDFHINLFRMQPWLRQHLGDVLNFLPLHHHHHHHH

human C2 D404A = biological target: T4, human C2 D404A (human, UniProt P06681 21-752)
T4 sequence: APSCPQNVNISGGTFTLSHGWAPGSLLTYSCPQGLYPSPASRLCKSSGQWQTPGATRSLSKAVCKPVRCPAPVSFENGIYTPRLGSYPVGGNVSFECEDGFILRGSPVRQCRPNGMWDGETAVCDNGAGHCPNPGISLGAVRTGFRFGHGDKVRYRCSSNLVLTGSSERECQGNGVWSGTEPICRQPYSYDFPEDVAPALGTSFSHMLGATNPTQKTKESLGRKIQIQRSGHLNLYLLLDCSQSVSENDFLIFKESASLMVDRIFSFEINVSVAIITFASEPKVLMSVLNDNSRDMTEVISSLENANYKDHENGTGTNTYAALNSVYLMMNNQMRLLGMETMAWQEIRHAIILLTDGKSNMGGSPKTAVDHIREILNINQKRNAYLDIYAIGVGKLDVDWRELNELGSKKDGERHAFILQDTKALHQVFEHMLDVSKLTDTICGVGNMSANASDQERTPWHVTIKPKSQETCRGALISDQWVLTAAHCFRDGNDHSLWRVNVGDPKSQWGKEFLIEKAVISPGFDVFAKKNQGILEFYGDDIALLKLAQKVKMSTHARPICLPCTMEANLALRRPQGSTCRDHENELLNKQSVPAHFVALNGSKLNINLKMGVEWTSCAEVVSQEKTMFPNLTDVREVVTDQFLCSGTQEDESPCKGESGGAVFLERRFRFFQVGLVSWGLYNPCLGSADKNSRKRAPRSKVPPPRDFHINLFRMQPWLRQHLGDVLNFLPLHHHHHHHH

B1: RF16-226 (antibody, human IgG4 S228P, lambda)
heavy: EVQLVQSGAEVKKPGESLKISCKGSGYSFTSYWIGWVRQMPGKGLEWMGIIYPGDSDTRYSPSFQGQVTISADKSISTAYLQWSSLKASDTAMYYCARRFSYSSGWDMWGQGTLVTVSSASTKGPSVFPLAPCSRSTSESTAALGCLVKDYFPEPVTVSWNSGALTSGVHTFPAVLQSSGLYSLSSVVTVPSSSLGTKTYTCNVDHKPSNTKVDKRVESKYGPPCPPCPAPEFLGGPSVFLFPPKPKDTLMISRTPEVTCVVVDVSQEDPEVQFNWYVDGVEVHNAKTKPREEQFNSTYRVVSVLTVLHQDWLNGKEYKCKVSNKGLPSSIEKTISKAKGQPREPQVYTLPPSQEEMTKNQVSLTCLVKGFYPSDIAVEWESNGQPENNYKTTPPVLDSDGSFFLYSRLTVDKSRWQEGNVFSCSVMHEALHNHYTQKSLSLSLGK
light: SYELTQPPSVSVSPGQTARITCSGDALTSKYVAWYQQKSGLAPLLVIYEDTRRPSGIPAKFSGSSSGSVATLTISGAHGDDEADYYCYSTDASGHQRVFGGGTKLTVLSQPKAAPSVTLFPPSSEELQANKATLVCLISDFYPGAVTVAWKADGSPVKAGVETTKPSKQSNNKYAASSYLSLTPEQWKSHRSYSCQVTHEGSTVEKTVAPTECS
notes: pH-dependent anti-C2 antibody from a phage display library; also called WT
Human C2 D511A
  Kd: 0.0312 µM
Human C2 P650A
  Kd: 0.0183 µM
Human C2 H435A
  Kd: 0.0243 µM
Human C2 D404A
  Kd: 0.0128 µM
